What was measured:
[1] = target: Fl–hRyR1(1975–1999)p: hRyR1(1975–1999)p with a 5,6-carboxyfluorescein moiety at the N-terminus (human)
[2] = target: Fl–hRyR1(3614–3643)p: hRyR1(3614–3643)p with a 5,6-carboxyfluorescein moiety at the N-terminus (human)
[3] = target: Fl–hRyR1(1975–1999)p: hRyR1(1975–1999)p with a 5,6-carboxyfluorescein moiety at the N-terminus (human); experiment: fluorescence polarisation

Sequence of Fl–hRyR1(1975–1999)p: hRyR1(1975–1999)p with a 5,6-carboxyfluorescein moiety at the N-terminus (human) (P21817 1975-1999): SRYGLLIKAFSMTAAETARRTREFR
Sequence of Fl–hRyR1(3614–3643)p: hRyR1(3614–3643)p with a 5,6-carboxyfluorescein moiety at the N-terminus (human) (P21817 3614-3643): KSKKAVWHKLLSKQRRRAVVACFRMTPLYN

Substance: full-length mammalian calmodulin (CaM_(1–148)) (from UniProt P0DP23 1-149) (natural protein)
- stoichiometry N [1]: 1
- stoichiometry N [2]: 1
- saturation at ~100 μM CaM [3]: > 85%

Reference: article PMC4208696
